Data as given in PMC4361764, “TatBC-Independent TatA/Tat Substrate Interactions Contribute to Transport Efficiency” (PLoS ONE, 2015).

Biological target: the molecule itself
Experiment: SEC; TatA-strep purified from the soluble fraction (Strep-Tactin), Superose 6, 10 mM Hepes pH 8.0, 150 mM NaCl, no detergent; Western blot of elution fractions

B1: Strep-tagged TatA from Escherichia coli (natural protein, UniProt P69428 1-89, looked up)
chain: MGGISIWQLLIIAVIVVLLFGTKKLGSIGSDLGASIKGFKKAMSDDEPKQDKTSQDADFTAKTIADKQADTNQEQAKTEDAKRHDKEQV
notes: TatA of Escherichia coli; The soluble form is a large association of many protomers; also called TatA-strep; soluble TatA-strep; source: E. coli DADE tatA-strep-tatBC (single-copy, wild-type level): in crude soluble extract; or purified from the soluble fraction (Strep-Tactin, Superose 6); not shown: Strep-tag, C-terminal, kept
  binding result: binds
